The record followed here is patent publication US20220356245A1 (FORTY SEVEN, published 2022).

The target in assay [1] is T1, human CD47 (hCD47) expressed on cells (human, UniProt Q08722 19-323).
T1 construct: Transfected CHO cells or endogenous CD47 of human cells; also called CHO-hCD47; CD47 on Raji cells
Kind of assay: flow cytometry, Raji cells. For orientation: Flow cytometry measures light scatter and fluorescence of single cells or particles in a stream.
Experimental: Raji cells (ATCC-CLL-86; 2×10⁵ cells/well of 96-well plate) were first incubated at +4° C. for 30 minutes with serial dilutions of anti-CD47 antibodies or control isotype antibody (in mIgG2a or mIgG1 format). The cells were then washed and incubated for 30 minutes at +4° C. with a PE-conjugated F(ab)′2 goat anti-mouse IgG antibody ( 1/100 dilution, Beckman Coulter). After washings, the fluorescence of the cells was analyzed by flow cytometry on an Accuri-C6 flow cytometer (BD Biosciences).
The delta of MFI, representing the difference between the intensity measured with the tested antibody and the intensity in the absence of antibody, was calculated for each antibody concentration and the values were plotted against the antibody concentrations. The EC50 values were then calculated by using a nonlinear regression analysis model of the GraphPad Prism software.

Assay [2] has as its target T1, human CD47 (hCD47) expressed on cells. Kind of assay: flow cytometry, hCD47-CHO cells, competition with His-hSIRPα; lower end tied to candidate 26 by Table 5.
Experimental: (§1) Human CD47-transfected cells (3×10⁵ cells/well of 96-well plate) were first incubated at +4° C. for 30 minutes with serial dilutions of anti-CD47 antibodies or isotype control antibody (in mIgG2a or mIgG1 format). […] The percentage inhibition was plotted against antibody concentration and the IC50 values were calculated using a nonlinear regression analysis model of the GraphPad Prism software.
For assay [3], the target named is T2, hu-sCD47-6His; extracellular domain of human CD47 antigen with 6His-tag (human).
T2 construct: also called hCD47-his; soluble hCD47
Kind of assay: SPR Biacore T200, antibody captured, hCD47-his analyte.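 Further: antibodies captured on anti-IgG (Fc) CM5 chip, five sequential 10 min antigen injections at rising concentrations, reference flow cell and antigen-free cycle as controls, 1:1 model fit.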 Background: In SPR one partner is held on a chip, and binding of the other changes the refractive index at the surface.
Text: (§2) An anti-human or anti-mouse IgG (Fc) was first immobilized on the surface of Serie S Sensor Chips CM5 using the human or mouse antibody capture and amine coupling kits, following the manufacturer's instructions (GE Healthcare). […] The mouse, chimerized or humanized antibodies to be tested were then captured onto the appropriate anti-mouse or anti-human IgG surface in all flow cells except flow cell 1 used as control, at concentration and contact time adjusted so that ˜300 RU were captured on the surface. Binding kinetics were studied by passing increasing concentrations of hCD47-his in a series of five 10 minute injections through all flow cells at a rate of 30 μL/min. […] Following the final injection, buffer was passed across each flow cell for 60 minutes (mouse) or 30 minutes (human) to monitor the dissociation of bound antigen. Regeneration of the binding surface was carried out at the end of the cycle by flowing 3 M MgCl₂ for 60 s at 20 μL/min followed by 10 mM glycine-HCl, pH 1.7 for 180 s at 10 μl/min (for human) or by flowing 10 mM glycine-HCl, ph 1.7 for 360 s at 10 μl/min (for mouse). A second cycle with the same antibodies but no antigen was run as a control. Kinetics binding constants were estimated by non-linear fitting of the sensogram data to the 1:1 binding model provided by the Biacore T200 evaluation software.

Assay [4] concerns the target T1, human CD47 (hCD47) expressed on cells. Put plainly: cell-based or functional assay.
Assay [5] has the same target. Put plainly: flow cytometry, hCD47-CHO cells, competition with His-hSIRPα.
Experimental: as §1
Assay [6] has the same target. Kind of assay: flow cytometry, CD47-transfected CHO cells.
Assay [7] deals with T3, mouse CD47 (mCD47) expressed on CHO cells (mouse, UniProt Q61735 19-303).
T3 construct: whole, on cells; also called CHO-mCD47
T3 sequence (looked up): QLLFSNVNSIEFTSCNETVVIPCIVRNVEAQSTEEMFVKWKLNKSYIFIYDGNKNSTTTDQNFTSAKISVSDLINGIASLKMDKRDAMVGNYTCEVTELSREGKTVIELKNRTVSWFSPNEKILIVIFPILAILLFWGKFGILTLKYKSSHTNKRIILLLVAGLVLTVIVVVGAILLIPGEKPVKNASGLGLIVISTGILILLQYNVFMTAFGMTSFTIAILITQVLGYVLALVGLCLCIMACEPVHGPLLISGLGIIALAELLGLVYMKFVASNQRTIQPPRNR
Kind of assay: flow cytometry, CHO-mCD47 cells.

Assay [8] deals with T1, human CD47 (hCD47) expressed on cells. Put plainly: flow cytometry, hCD47-CHO cells, competition with His-hSIRPα; upper end tied to candidate 33 by Table 5.
Experimental: as §1
The target is the same in assay [9]. Put plainly: flow cytometry, Raji cells, competition with His-hSIRPα; upper end tied to candidate 19 by Table 7.
Experimental: (§3) The percent inhibition was plotted against antibody concentration and the IC50 values were calculated by using a nonlinear regression analysis model of the GraphPad Prism software.
For assay [10] the target is unchanged. Put plainly: flow cytometry, Raji cells, competition with His-hSIRPα.
Experimental: as §3
Assay [11] concerns the target T2, hu-sCD47-6His; extracellular domain of …. Kind of assay: SPR Biacore T200, antibody captured, hCD47-his analyte; exponent printed without minus sign, read as 10^-8.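 Further: antibodies captured on anti-IgG (Fc) CM5 chip, five sequential 10 min antigen injections at rising concentrations, reference flow cell and antigen-free cycle as controls, 1:1 model fit.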
Text: as §2

B1: Candidate 26 (VT008-AL6-10G3-10K1), mouse IgG (antibody, V domains shown)
VH: QVQLQQPGPELVKPGASVKLSCKASGYTFTNYWIHWLNQRPGRGLEWIGRIDPNSGGTKYNEKFKSKAILTVDKSSSTTYMQLSSLTSEDSAVYYCARGGYTMDYWGQGTSVTVSS
VL: DVVMPQTPLSLPVSLGDHASISCRSSQSLLHSNGNTYLHWYLQKPGQSPKLLIYKVSYRFSGVPDRISGSGSGTDFTLKISRVEAEDLGVYFCFQSTHVPWTFGGGTKLEIK
notes: Recombinant mouse IgG2a or mIgG1 format, by assay
Take B1: in assay [1], it took 0.07 µg/mL to reach a half-maximal effect (EC50). In addition, in assay [2], the IC50 (usually the midpoint of a concentration-inhibition curve) is 2.4 nM. Also, in assay [3], the Kd (commonly a measure of binding affinity in units of concentration) amounted to 1.87 nM; the koff (as a rule, a measure of how fast the partners let go of each other) came out at 0.000372 s⁻¹; the kon (as a rule, a measure of how fast the partners come together) is 200000 M⁻¹ s⁻¹. The “Phagocytic index, Raji cells and human macrophages, antibody at 0.125 µg/mL” value (“Phagocytic index” for short) in assay [4] is 85.3 Raji cells ingested per 100 macrophages. For the same molecule, the IC50 in assay [5] was found to be 0.359 µg/mL.

B2: Candidate 29 (VT008-AL6-20G7-20K7), mouse IgG (antibody, V domains shown)
VH: QVQLQQSGTELAKPGASVKLSCKASGYTFINYWIYWVKERPGQVLEWIGYINPRSDDTKYNQKFRDRATLTADKSSTTAYLQLNSLTNDDSALYYCARGGFTMDFWGQGTSVTVSS
VL: DVVMTQTPLSLPVSLGDQASISCRSSQSLLHSNGNTYLHWYLQKPGQSPNLLIYKVSYRFSGVPDRFSGSGSGTDFTLKISRVEAEDLGVYFCSQGTHVPYTFGGGTKLEIK
In the case of B2, the binding result in assay [6] is “binds”.

B3: Candidate 33 (VL008-AL17-8G5-8K7), mouse IgG (antibody, V domains shown)
VH: LVQLQQSGPELVKPGTSVKISCRSSGYTFTDYYINWVQQRPGQGLEWVGWIFPGSGLTYYNKKFKGKATLSVDKSSNTAYMLLSSLTSEDSAVYFCARPYYGSRWDYTMDYWGQGTSVTVSS
VL: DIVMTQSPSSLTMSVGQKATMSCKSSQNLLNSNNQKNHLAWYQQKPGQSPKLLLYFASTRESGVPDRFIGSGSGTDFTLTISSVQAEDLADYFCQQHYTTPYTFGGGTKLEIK
notes: as for B1
For B3, the binding result in assay [7] is “no binding (tested: 7.3 µg/mL highest concentration)”. For the same molecule, the EC50 (usually the concentration needed to bring the measured effect to its halfway point) in assay [1] came out at 0.112 µg/mL. Also, in [3], the Kd turned out to be 0.898 nM, the koff is 6.7e-05 s⁻¹ and the kon amounted to 74600 M⁻¹ s⁻¹. Besides, the “Phagocytic index” value in assay [4] was 71.4 Raji cells ingested per 100 macrophages. The molecule further registered an IC50 in [8] of 7.3 nM. Further, the IC50 in assay [5] is 1.11 µg/mL.

B4: Candidate 19, chimeric hIgG format (hIgG1 or hIgG4) (antibody, V domains shown)
VH: QVQLQQSGPELVKPGASVKISCKASVYTFTDYYINWVKQRPGQGLEWVGWIFPGSGLTYYNKKFKGKATLTVDKSSSTAYMLLSSLTSEDSAVYFCARPYYGSRWDYAMDYWGQGTSVTVSS
VL: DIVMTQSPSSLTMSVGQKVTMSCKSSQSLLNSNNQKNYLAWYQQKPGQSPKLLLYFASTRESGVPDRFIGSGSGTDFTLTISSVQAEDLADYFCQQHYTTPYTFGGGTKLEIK
notes: also called Candidate 19 (hIgG format)
Turning to B4, the IC50 in [9] is 2.46 nM; in assay [10], 0.369 µg/mL.

B5: Candidate 22 (VL008-AL13-8G5-8K3), mouse IgG (antibody, V domains shown)
VH: QVQLQQPGAELVKPGASVKLSCKASGYTFTTYWMHWVKQRPGQGLEWIGMIHPNSGTTNYNEKFKSKATLTVDKSSSSTYMQLSSLTSEDSAVYYCTRSHYYDGHFSYWGQGTLVTVSA
VL: DIVMSQSPSSLAVSAGEKVTMSCKSSQSLLNSRTRKNYLAWYQQKPGQSPKLLIYWASTRESGVPDRFTGSGSGTDFTLTISSVQAEDLAVYYCKQSYNLWTFGGGTRLEIK
notes: Recombinant mouse IgG2a or mIgG1 format, by assay; also called antibody 22
Take B5: the binding result in [7] was “no binding (tested: 7.3 µg/mL highest concentration)”. Besides, the midpoint of the response in assay [1], the EC50, lay at 0.136 µg/mL. Moreover, in assay [3], the koff was 0.000325 s⁻¹ and the kon was 20700 M⁻¹ s⁻¹. Moreover, the “Phagocytic index” value in assay [4] is 106 Raji cells ingested per 100 macrophages. The Kd in [11] came out at 15.7 nM. In assay [5], this molecule displayed an IC50 of 0.482 µg/mL.
